Legend:
[1] = target: full-length SARS-CoV-2 spike protein (amino acids M1-T1273 of accession number YP_009724390.1) on Ju (SARS-CoV-2) (UniProt P0DTC2); assay: cell-based or functional assay
[2] = target: SARS-CoV-2 spike protein on VSV-SARS-CoV-2-S pseudovirus (SARS-CoV-2) (UniProt P0DTC2); assay: cell-based or functional assay
[3] = target: human FcγR3a 176Val allotype receptor (human) (UniProt P08637); assay: cell-based or functional assay
[4] = target: MOD1-SARS-CoV-2 Spike Protein (RBD)(R319-F541).mmH (SARS-CoV-2); assay: Luminex beads, supernatant
[5] = target: MOD10-SARS-CoV-2 Spike Protein (RBD)(R319-F541).mmH (SARS-CoV-2); assay: Luminex beads, supernatant
[6] = target: MOD11-SARS-CoV-2 Spike Protein (RBD)(R319-F541).mmH (SARS-CoV-2); assay: Luminex beads, supernatant
[7] = target: MOD12-SARS-CoV-2 Spike Protein (RBD)(R319-F541).mmH (SARS-CoV-2); assay: Luminex beads, supernatant
[8] = target: MOD13-SARS-CoV-2 Spike Protein (RBD)(R319-F541).mmH (SARS-CoV-2); assay: Luminex beads, supernatant
[9] = target: MOD14-SARS-CoV-2 Spike Protein (RBD)(R319-F541).mmH (SARS-CoV-2); assay: Luminex beads, supernatant
[10] = target: MOD15-SARS-CoV-2 Spike Protein (RBD)(R319-F541).mmH (SARS-CoV-2); assay: Luminex beads, supernatant
[11] = target: MOD2-SARS-CoV-2 Spike Protein (RBD)(R319-F541).mmH (SARS-CoV-2); assay: Luminex beads, supernatant
[12] = target: MOD3-SARS-CoV-2 Spike Protein (RBD)(R319-F541).mmH (SARS-CoV-2); assay: Luminex beads, supernatant
[13] = target: MOD4-SARS-CoV-2 Spike Protein (RBD)(R319-F541).mmH (SARS-CoV-2); assay: Luminex beads, supernatant
[14] = target: MOD5-SARS-CoV-2 Spike Protein (RBD)(R319-F541).mmH (SARS-CoV-2); assay: Luminex beads, supernatant
[15] = target: MOD6-SARS-CoV-2 Spike Protein (RBD)(R319-F541).mmH (SARS-CoV-2); assay: Luminex beads, supernatant
[16] = target: MOD7-SARS-CoV-2 Spike Protein (RBD)(R319-F541).mmH (SARS-CoV-2); assay: Luminex beads, supernatant
[17] = target: MOD8-SARS-CoV-2 Spike Protein (RBD)(R319-F541).mmH (SARS-CoV-2); assay: Luminex beads, supernatant
[18] = target: MOD9-SARS-CoV-2 Spike Protein (RBD)(R319-F541).mmH (SARS-CoV-2); assay: Luminex beads, supernatant
[19] = target: SARS-CoV-2 spike protein (S-wt, Wuhan-Hu-1, NCBI Accession Number MN908947.3) on VSV pseudoparticles (SARS-CoV-2) (UniProt P0DTC2); assay: cell-based or functional assay
[20] = target: SARS-CoV-2 spike protein, Wuhan-Hu-1 sequence (S-wt), on VSV pseudoparticles (SARS-CoV-2) (UniProt P0DTC2); assay: cell-based or functional assay
[21] = target: Bt-MERS.hFc (mAb2664-L2) (MERS-CoV) (UniProt K9N5Q8); assay: Luminex bead binding, supernatant
[22] = target: MERS.hFc (mAb2664-L1) (MERS-CoV) (UniProt K9N5Q8); assay: Luminex bead binding, supernatant
[23] = target: MERS.mFc (mAb2663-L1) (MERS-CoV) (UniProt K9N5Q8); assay: Luminex bead binding, supernatant

Chain of human FcγR3a 176Val allotype receptor (human) (P08637 17-254 F176V): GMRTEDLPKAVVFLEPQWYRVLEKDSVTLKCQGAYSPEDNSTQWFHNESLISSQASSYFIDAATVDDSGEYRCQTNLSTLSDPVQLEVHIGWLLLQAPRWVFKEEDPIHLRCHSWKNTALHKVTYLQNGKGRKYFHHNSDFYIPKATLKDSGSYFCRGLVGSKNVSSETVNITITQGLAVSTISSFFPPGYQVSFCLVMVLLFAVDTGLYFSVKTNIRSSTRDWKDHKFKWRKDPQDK

IgG1 Isotype Control (antibody)
ADCP Max (% ADCP), Jurkat/hCD20/SARS-CoV-2 Spike cells [1]: 10.4%

mAb10933 (antibody)
Neutralization (1:100 dilution) [2]: 88.4%
ADCC (Activity (%) (of positive control)) [3]: 68.5%
ADCC Mean RLU (surrogate reporter assay, spike-expressing target cells) [3]: 9740 RLU

mAb10934 (antibody)
ADCC Mean RLU (surrogate reporter assay, spike-expressing target cells) [3]: 11700 RLU
Binding signal (MFI) [4]: 81 MFI
Binding signal (MFI) [5]: 30400 MFI
Binding signal (MFI) [6]: 30700 MFI
Binding signal (MFI) [7]: 32900 MFI
Binding signal (MFI) [8]: 30500 MFI
Binding signal (MFI) [9]: 28600 MFI
Binding signal (MFI) [10]: 27800 MFI
Binding signal (MFI) [11]: 27700 MFI
Binding signal (MFI) [12]: 25100 MFI
Binding signal (MFI) [13]: 31700 MFI
Binding signal (MFI) [14]: 6650 MFI
Binding signal (MFI) [15]: 30800 MFI
Binding signal (MFI) [16]: 29900 MFI
Binding signal (MFI) [17]: 6410 MFI
Binding signal (MFI) [18]: 31300 MFI

mAb10987 (antibody)
IC50 (M), neutralization [19]: 4.06e-11 M
Neutralization (1:4 dilution) [2]: 99.3%
Neutralization (1:20 dilution) [2]: 97.7%
Neutralization (1:100 dilution) [2]: 94.6%
Relative neutralization (5 µg/ml, Vero cells) [20]: 100%
ADCC (Activity (%) (of positive control)) [3]: 29.4%
ADCC Mean RLU (surrogate reporter assay, spike-expressing target cells) [3]: 12000 RLU
Binding signal (MFI) [21]: 172 MFI
Binding signal (MFI) [22]: 235 MFI
Binding signal (MFI) [23]: 196 MFI

mAb10989 (antibody)
IC50 (M), neutralization [19]: 7.23e-12 M
Neutralization (1:4 dilution) [2]: 100%
Neutralization (1:20 dilution) [2]: 99.8%
Neutralization (1:100 dilution) [2]: 98.2%
ADCC (Activity (%) (of positive control)) [3]: 21.5%
ADCC Mean RLU (surrogate reporter assay, spike-expressing target cells) [3]: 10200 RLU
Binding signal (MFI) [5]: 15500 MFI
Binding signal (MFI) [6]: 16800 MFI
Binding signal (MFI) [7]: 15100 MFI
Binding signal (MFI) [9]: 18100 MFI
Binding signal (MFI) [10]: 15900 MFI
Binding signal (MFI) [11]: 16700 MFI
Binding signal (MFI) [12]: 18300 MFI
Binding signal (MFI) [13]: 15800 MFI
Binding signal (MFI) [14]: 3370 MFI
Binding signal (MFI) [15]: 19600 MFI
Binding signal (MFI) [16]: 15200 MFI
Binding signal (MFI) [17]: 6140 MFI
Binding signal (MFI) [18]: 17800 MFI
Binding signal (MFI) [21]: 186 MFI
Binding signal (MFI) [22]: 206 MFI
Binding signal (MFI) [23]: 161 MFI
